The values that follow come from PMC6606808.

The target in the experiment is Acinetobacter baumannii AdeB multidrug efflux pump (Acinetobacter baumannii AB0057). Briefly: cryo-EM structure; single-particle cryo-EM of purified AdeB reconstituted in lipidic nanodiscs (MSP 1E3D1, E. coli total extract lipid); 20 mM Tris-HCl pH 7.5, 100 mM NaCl; no substrate; C3 symmetry; 2.98 Å.

“Acinetobacter baumannii AdeB multidrug efflux pump (natural protein)” displayed a stoichiometry N of 3.

Broadly, the stoichiometry N is a count of units in the complex or per binding partner.
